Patent publication US20100184658A1 (published 2010)

Columns and labels:
Test in all cases: cell-based or functional assay
MAP2K1 (MEK1) = MAP2K1 (MEK1) (UniProt Q02750 1-393, limits assumed)
[1] = target: T1, STK4 (MST1) Serine/threonine kinase 4 (UniProt Q13043 1-487, limits assumed)
T1 sequence (looked up): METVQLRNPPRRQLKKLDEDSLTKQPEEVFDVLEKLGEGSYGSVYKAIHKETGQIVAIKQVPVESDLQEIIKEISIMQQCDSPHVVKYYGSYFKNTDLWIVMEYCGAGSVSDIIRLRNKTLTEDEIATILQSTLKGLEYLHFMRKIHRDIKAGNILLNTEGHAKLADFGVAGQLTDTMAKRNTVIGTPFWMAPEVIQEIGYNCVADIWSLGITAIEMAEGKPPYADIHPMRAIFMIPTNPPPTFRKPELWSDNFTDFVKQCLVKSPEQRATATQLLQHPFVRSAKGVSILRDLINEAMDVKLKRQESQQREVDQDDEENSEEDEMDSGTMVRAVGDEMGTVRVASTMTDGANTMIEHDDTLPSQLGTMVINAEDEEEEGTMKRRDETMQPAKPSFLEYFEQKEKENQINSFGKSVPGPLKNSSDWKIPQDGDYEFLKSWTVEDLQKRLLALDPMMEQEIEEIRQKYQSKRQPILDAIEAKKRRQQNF

[2] = target: T2, NEK9 NIMA (never in mitosis gene a)-related kinase 9 (UniProt Q8TD19 1-979, limits assumed)
T2 sequence (looked up): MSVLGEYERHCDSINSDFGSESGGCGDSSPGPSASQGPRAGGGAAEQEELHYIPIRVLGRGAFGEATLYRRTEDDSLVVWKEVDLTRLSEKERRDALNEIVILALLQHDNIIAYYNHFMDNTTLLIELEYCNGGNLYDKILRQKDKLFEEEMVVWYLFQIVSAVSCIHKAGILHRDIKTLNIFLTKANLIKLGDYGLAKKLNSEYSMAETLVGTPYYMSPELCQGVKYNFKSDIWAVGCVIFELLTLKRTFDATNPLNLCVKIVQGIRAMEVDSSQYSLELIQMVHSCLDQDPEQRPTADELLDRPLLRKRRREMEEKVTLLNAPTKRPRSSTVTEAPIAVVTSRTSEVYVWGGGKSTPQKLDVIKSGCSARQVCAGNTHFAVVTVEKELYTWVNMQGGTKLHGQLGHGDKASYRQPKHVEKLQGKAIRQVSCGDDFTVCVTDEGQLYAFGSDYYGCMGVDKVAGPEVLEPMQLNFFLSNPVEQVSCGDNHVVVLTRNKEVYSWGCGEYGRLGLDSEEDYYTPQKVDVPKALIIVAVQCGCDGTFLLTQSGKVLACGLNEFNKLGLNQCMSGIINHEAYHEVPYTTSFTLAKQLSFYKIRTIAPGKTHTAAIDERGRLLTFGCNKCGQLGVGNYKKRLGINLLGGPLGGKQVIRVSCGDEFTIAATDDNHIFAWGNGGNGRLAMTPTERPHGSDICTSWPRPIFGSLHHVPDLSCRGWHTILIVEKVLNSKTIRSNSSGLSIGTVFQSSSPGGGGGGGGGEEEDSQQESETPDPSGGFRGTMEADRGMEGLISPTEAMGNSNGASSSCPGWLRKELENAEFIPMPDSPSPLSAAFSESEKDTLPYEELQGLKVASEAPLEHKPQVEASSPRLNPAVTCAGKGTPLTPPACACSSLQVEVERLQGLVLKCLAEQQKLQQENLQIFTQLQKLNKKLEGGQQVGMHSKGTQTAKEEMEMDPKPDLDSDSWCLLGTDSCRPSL

AKT2 (PKB beta) = AKT2 (PKB beta) (human (printed as (h)), UniProt P31751 1-481, limits assumed)
PRKCZ (PKC zeta) = target: T3, PRKCZ (PKC zeta) (human (printed as (h)), UniProt Q05513 1-592, limits assumed)
T3 sequence (looked up): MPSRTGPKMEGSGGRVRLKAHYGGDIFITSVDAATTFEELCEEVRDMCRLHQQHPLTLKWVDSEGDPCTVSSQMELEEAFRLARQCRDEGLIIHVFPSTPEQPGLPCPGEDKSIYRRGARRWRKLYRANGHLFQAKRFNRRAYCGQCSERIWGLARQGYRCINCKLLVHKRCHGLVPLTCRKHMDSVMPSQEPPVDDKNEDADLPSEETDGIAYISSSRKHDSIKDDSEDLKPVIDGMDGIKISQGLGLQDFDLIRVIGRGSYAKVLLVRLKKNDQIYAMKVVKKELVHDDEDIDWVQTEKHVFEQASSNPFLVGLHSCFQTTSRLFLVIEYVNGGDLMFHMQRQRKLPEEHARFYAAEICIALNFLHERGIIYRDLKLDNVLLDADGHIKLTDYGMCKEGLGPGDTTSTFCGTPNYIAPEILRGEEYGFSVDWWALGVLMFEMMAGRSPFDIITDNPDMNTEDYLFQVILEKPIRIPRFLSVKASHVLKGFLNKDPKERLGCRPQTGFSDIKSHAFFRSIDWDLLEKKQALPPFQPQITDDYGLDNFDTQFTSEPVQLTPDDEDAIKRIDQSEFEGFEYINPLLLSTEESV
Note: test concentration or dose not given here.

AKT2 (PKB beta) (human (printed as (h)), UniProt P31751 1-481, limits assumed), sequence (P31751 whole entry): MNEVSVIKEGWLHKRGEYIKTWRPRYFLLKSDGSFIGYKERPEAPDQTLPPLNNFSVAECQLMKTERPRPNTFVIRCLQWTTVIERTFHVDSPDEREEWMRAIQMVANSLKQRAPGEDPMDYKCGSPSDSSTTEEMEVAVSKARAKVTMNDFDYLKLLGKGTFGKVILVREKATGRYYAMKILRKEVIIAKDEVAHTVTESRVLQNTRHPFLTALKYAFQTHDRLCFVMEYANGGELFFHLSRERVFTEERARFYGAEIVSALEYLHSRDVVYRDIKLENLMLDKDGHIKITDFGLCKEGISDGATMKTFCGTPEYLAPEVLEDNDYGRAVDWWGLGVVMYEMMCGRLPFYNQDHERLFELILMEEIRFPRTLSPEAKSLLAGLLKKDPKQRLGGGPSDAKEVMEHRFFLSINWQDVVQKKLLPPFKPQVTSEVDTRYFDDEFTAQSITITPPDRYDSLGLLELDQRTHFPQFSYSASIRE

B1: D3 peptide (peptide)
peptide: SGRPPMIVWFNRPFLIAVSHTHGQTILFMAKVINPVGA
% Inhibition mean (MAP2K1 (MEK1)): 94%
% Inhibition mean [1]: 99%
% Inhibition mean [2]: 108%
% Inhibition mean (AKT2 (PKB beta)): 67.7%
% Inhibition mean (PRKCZ (PKC zeta)): 74.4%
